Test results: the domain aggregation screens of Martell et al. (2025)

assay: soluble fraction after stress (log2 fold change); higher = more stays soluble; pooled small domains, quantitative proteomics; conditions: stress: 50 degC
Method in brief: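 Pooled custom libraries of small protein domains were measured in a high-throughput format, with quantitative proteomics as the read-out. Each library was stressed at 50°C. Aggregation propensity is given as the base-two logarithm of the fold change in how much of each protein stays soluble after the stress. Higher values mean a larger share of the protein remains in solution.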

Sequence	soluble fraction (log2)
HMEQPLSLKLANNAFSRFWGNANPAEKDTQPNNSDIAKWVIEQSGGKITQTMADKIAQIIRPEWAA	0.184
HMGSIRDIIVQYLSKFDDPQPAAKIVEYVQQYRDTTESSIRSSMGSGDQFVQFSGGLYGLKDKTYAAWYSI	-0.321
HMSILTELDIGDKVEVVAGPFKGIQANITRIEPVRKEVTVILLDAPYQLPVTVDADYLKIIQKS	-0.155
HMVVLPPTEDAPEWAQVFDRLGRPESADGYKLPVPEGADPAFAKLASAKMHELGLSAKQGAALAAWWNEQA	0.108
HMSATEPVHFDPNKSPEDMTVEELQAGILAKMANNGPVSDQMKKTVNENIWHDSLVNWLKSF	0.0373
HMDLDSGVAVLRTLMSQHNLQTDDFQNEIGGKSMVSMILNGTRKLSKNHIQALSGRFNLSPALFF	-0.962
HMETKVIVPKVTGMNSKSAINYLSARGLKYKAVPADSGKSFHVVDQYPKSGTKVSPHSTVYLYS	0.077
HMEEAQWEFKWENTDSAEIHGPHSSSEMLKWQENSFFAKGVYVRKVGGDTTDFTDGKRIDFDLY	-0.822
HMSSDDEAFKRELVGLIPHLRAFARTLTGDPTAADDLAQDAMMKAWDARASYQMGTNMKAWTFMILRNQFY	-2.22
HMRDTAKTLLAMEVVGENNKKNLQAFGIQKGDQNYQTAVVVRLMQKALMEGDTSAIRLIGELTGD	-0.197
HMSRLMIVTPDGRIMDDVPEFGEVRTTTDVNGRVLVLDRNNVVIGFEMTPREYRREFGRNPF	-0.643
HMLPTVSITGHIFIRSGSPLNRIFVGEKIYHVGDHIDRDWVIESIGIDTLTIRSGTLSTQLPL	-2.87
HMIETLGDATFKRLKAMILDGTLEPGTRLSEKKFADHLGVSRTPVREAIGQLVSEGLAKRSAGSAPVVSS	0.0372
HMESAESRVDLIGMIGEAITDLRPAGTAQFGEERIDVVSESEWITEGSTVKVVSAEGYRHVVRVME	-0.162
HMGRQVTVPNVTGMLVEEARAAISEAELWVDSPRAVQGEVTRQEPARGERLSPGQEVRIYTES	0.31
HMIHSEDMDDHILGHKLVDQYLNKHIEFDNIKKAWNYHTVAIKKFGRYPHRNKILKRESTIEEIDFLKQP	0.149
HMEEDPILVAQRFLNIFRQLHIFDQQRREEFNSMILALPPEIRGTFGVLPGGSVLQEYVDELEISKGMA	-0.512
HMAPGVHVEALLPYTAGSLVSQIREYGNVDAVEYRDTGILLQADVDERLAAQIMDQALEDPV	0.0408
HMEDMMKALLDVVRAQHTATEGSEERPFDINDIIDMALNITGRPEEPEEQQELSDTIQKLAESLAPDIFP	-0.356
HMDTLKDFISGVSIVFENKYSVGDNVTIGDFRGDVIELGMKTTKIRAYTGEVLIIPNHLVEKVINH	-1.51
HMKITININIETLSHHIKQSGVPLGRLQESVPDYNEIVTGNKSPTYQQLEKISKLIRVPLGLLVIESPL	0.268
HMEDPFLWVEKLGSSDWIEREESAEKLLEAGEASVEALRTALTHPDLEVRERVRELLSVISPL	-0.104
HMTMNYYDILSIKRDATLEEIQKAYKEKSFQFHPDFNKGISDDSMFRIIKEAYETLSDTEKRNQYDASLNK	0.232
HMSSEASALRGWLQTSQYQGSVTLFANALNVPLKTVEDWVYGRSKPSLQHWSQLYEATGLPEYQQ	-0.18
HMNANTILNSQRILTQLGFNPGPIDGAFGAKTKGALNAFYTSIGKSYDGLLDSNELVELQKALDVSGLKN	-0.295
HMTKIEYTEQEFNDFIQAYKNNRKMFPEDYIVKTQVVFINKGFSKSQADMIIAQIETRLRLQGE	-0.421

Sequence	soluble fraction (log2)
HMGDVATVKLDNNGLLNMRKSDARGADIVARIPNGTVVQVLNRETEWTQVRYDGKEGYVMSSFLQFAE	0.199
HMSDEINYVIQINGKNRAEAEFGANLDKESIENLALEHERIKELLNGLTVRKIIVVPKKLVNIVA	-0.312
HMQTQVEVLVKYVLEDGTVYKEDKVSADIGAILDSGDLPMLSNDMKFIDDFLFYEVKESDNVIERKVAKLV	0.114
HMPNIQLARNLKYLRLAYGLTQDDLGAFLNISRQAYSNYENLKRSPDLDSLIRLASLYHLSLDDLVSR	-3.09
HMNPLLSAYLAEVERGLQGLTAGRRRLVLRELEAHLLDEAEARGLLTEEDMRALLMEKEPPERLAQEIAQ	-0.0936
HMYEDGGAFLKAEREKYGLTLTDIYEHTHIPVRKLKAYEMHEEEMPDRTRALLELYFDQVAYEYES	-0.443
HMFYLPEPLTEQELRILGMLLDGRSNPEIAAELFIAVGTAKWHVHNILQKLGVANRAQAIVKAHELGLT	-1.91
HMSYQFKIKNNAAVEVTVSEKNNLLGSTYGDKATVAAGMEKNVTFYTDKPDVVVDTNGNFTITVHDKEIII	0.132
HMSEPIYTQLKEILTQKIVNGEFPPGARLPSEYELTELYHISRSTVRLALKELEASGMIVRRRGKGTFVSS	-1.76
HMLNKRQAEILAEVSRLKEITPSELYKLQPNVSSRTLRRDMDVLVNKGLVSQDGSTKSTKYTYL	0.23
HMDEFAGSAKPLADGAAPAGYDVKGNKDSMKYHEPGGRWYDATVAEVWFKTAADAEAAGFVKAGA	0.172
HMGAYIPSYAPVDINAATHTVVRGDTVYNISKRYHVSQEDFRAWNGMADNTLSIGQVVKVKPAGYTAPK	-0.087
HMAVEETFTITWLDRDGTVLEVDENVLKGTMPSFDGHIPPHDGLEFKGWDPEVVPVEGDATYTATYKA	-0.176
HMVSVPDIGEKLPDFTGTPKRLLTPLLNKNDVNIIIKGDGWVVSQKPPAGTPVTKGMTIEFTL	-0.208
HMASPKEALWRSLAEEPDTWWDNRERKSQPGANPRSPDFKHKESGEALWIESRDTPTWVLETL	0.1
HMEIFSIEPDSYLGSGEEIASYYREGVTVIVNMAKLSDAESLRMVDFMSGLKLALLGNIKRITKHVYLLTP	-0.0901
HMKVVEKHIVPQIQNPIRLQEYASSIFKTITTRSGIKKAIKKQLILLNRKPANTGDWIKEGQLLELLAEE	-0.242
HMVAMYLRVGISNGRRYLSIVQGYRDQVTKKVRHNTVKSLGYLDDLEKHYPDPIAHFKAVVEEMNKKQALE	-0.847
HMFFFILNKGAKSGGEITHAVLNGSIVSKPAGWDAFHGLVLAKEKLSSEEIQRQMKELGVEMEIVPL	-0.58
HMDVNLSIRSGETIGIIGSTGSAKSTLVQLIPRLYDTTEGEVLVGGVNVKNYDLEALRNSVAMVLQKN	-0.066
HMFELDELDLVILKNLANGLSKKQIRVKLKKMDLRPNSESAIDKRVSKLFDEFGAKNSTELVAKLIREGL	-2.55
HMYLPGERMRIKITALGSNPKQGVGYLPDGMMVVVDEAATLVGRFVEIEFVKFLQTNSGRMMFAKVAT	-0.224
HMKQNRNLPVQIINNGKIIESVMTEFNLDIDWVYSEAKRLGYKNIKDIFYAGINRDGQFFIVPLF	-0.448
HMTYQHQSIIHRRTRGAILTAAKELLAESGISGTNMIEIADRAQVSRASLYNHFRDKHEVFLALVES	-0.677
HMFASSADGVEGLKTNPIFASTKEKSDAGKLLYTRYLAIGIFRMLELAKATDPKALEALVEAGG	0.0895
HMDSVFGVVTSSDGVKLRKEASTISKVLTVLPYGTEVDVDRIGSEWIRIVTDGGQKGYVSADYLAVREGER	0.206

Sequence	soluble fraction (log2)
HMQTAAANPSPESILQAREAAGLSQSEAGALIYSGLRSWQHWEWGTRRMHPGLFELFLKKTGQI	-1.7
HMIFSIIPGQIRLTKMEIADGYLVLYGFTPSKEIYNLHLNPALKSIFTSSETSFIPVSGGLKFMSTNKL	-1.78
HMSQDPLETYYPQWSAAVKQSNPDAEIIRDTDGKYYVEGMTKNRVAVIYENPHLVRLVNATTNVHVE	0.0542
HMTIGIGKSLDFNTSGEKAYRIYNFKGAYVGTFKASDMTSLKNEVQKSNVKAGAYMVRSLDGHVNRLIEIK	-0.681
HMKVELSENEKIIYDLLSNQEVLLSEIKDKAELSNKAWDKSTKSLRKLGLVIVEKKDDNIYISKS	-0.362
HMSAETREELVGREGVSLTDLRPSGFALFGQEKIDVVSESEFIEEGTSVRIVSVEGSRHIVRAKR	0.0998
HMAQNILPGQKNAIKSLATSAGFSQQELDSYLSQNYGKTLNNLSQKEGASLISGLQDGSIKKP	0.352
HMVVYFGGPVMLERGIVLHTPDISTKGTINVSDDFALTAHKEILDNINKDTSSLQFKLAIGH	-0.895
HMTFENMFIENSGETLDREFLVENLRGISWQSYDRSVDVLVSRLRGKLGETPNNTRFIKTIHGVGYKFIGE	-0.316
HMFMMVAGHLQIKNEKYYMVLELRTEQGERKTKWIGTGLAVKGNKRRAEAMLEETRTKYLSPV	-1.95
HMRLPAISYSFARKHGVVLRLDGDRPVASLREGADPAILIEVKRHLDGAMGVEKVSEAAFDQLLSTTYA	-0.484
HMTYGYFELKAKNLDSLKQFLKGIAQVESIEEENNGLKVFLKNELESEELSEKLAEAKIFVSHLAKKK	0.0782
HMTLDDSFYQKADEIIANHTKEERSLIPIIQDIQAEYRYLPPELLTYVAKEIGITDARAYSVASFYENFS	-0.446
HMVLVEEYDTKDSASTFKIGYYARYNTKYGTPSKVGSYADNQRSGIWTFYTDSLKTYFKYNYSTGLIL	0.115
HMGESVQVPSYVGMGFREAARKARARDFGVAVSDSIYVPGKPPGEIIAQDPKAESRVKEGRTIYFTVAK	0.0425
HMSLEEQNGAKDRQVEAYELLLKAQRALDQEDTAGFQAAMKDLEPLSSQLDAQGQTLYHELLPFVS	-0.0812
HMKYRPGDVVTLRVARMGEMGAFLDAGTGNTNDDILLHKMQQTEEIKAGQDVKVYLYLDPNRRLTASMKL	-0.108
HMVKNTIHVDLKGEVNKPGVYEVEEGTIVNDLITLANGFTKNAYQDNINLSKKLTDEMVIVVSKKGS	0.337
HMSDRLRLGRRIRAARLEQNLSQAALAERLGISASYLNLLEHDRRSLTTVLLLKLAQVLGLELRDLAAG	-1.99
HMFHDALVSFAERRVIFMKELVNRLNEARKAYYEGESIMSDKEYDNLYDKLVKMELTTGVVLPNSPTEEVG	-1.37
HMRDQARQFFIDTWAKFQRHDALTPLEEKTAAIIALHPEYHRVLQNPESFITTDWRPESGDINPFMHL	-1.34
HMRGDEDTGVWPTPMKRAYIDSLLKGYPTGVTMIVKPPGASHTTKWMILDGANRARALRDFMNDEFMI	-0.163
HMGAVPKNYFPAVEKGLQDSVQKGLLAGYPVVGVKAILYDGSYHPVDSSEMAFKTATIQAFKKGFMEA	0.2
HMSDFDPTLILDLIKGSGEALTKREIARALGIKGGDKRIELKSHLKSMEAEGVIVKQAGGAYSVP	-0.122
